Measured values published in patent US7923016.

What was measured:
[1] = molecular target: CXC chemokine receptor 4 (CXCR4) on THP-1 cells (UniProt P61073); assay: cell-based or functional assay
[2] = molecular target: wild-type CXCL12-α (UniProt P48061); assay: apparent Kd; method not given
[3] = molecular target: wild-type CXCL12-α (UniProt P48061); assay: method not given; reference is unsulfated p38

Chain of CXC chemokine receptor 4 (CXCR4) on THP-1 cells (P61073 whole entry): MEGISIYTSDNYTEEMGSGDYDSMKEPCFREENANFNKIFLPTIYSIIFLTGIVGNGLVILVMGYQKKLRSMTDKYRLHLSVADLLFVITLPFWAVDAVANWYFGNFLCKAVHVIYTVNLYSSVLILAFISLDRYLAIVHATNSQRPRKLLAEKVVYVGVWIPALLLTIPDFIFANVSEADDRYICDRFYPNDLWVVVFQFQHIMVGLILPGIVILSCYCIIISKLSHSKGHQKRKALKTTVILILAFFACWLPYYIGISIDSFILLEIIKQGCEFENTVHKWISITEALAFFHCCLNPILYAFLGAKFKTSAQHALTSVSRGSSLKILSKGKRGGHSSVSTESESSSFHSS

| Substance | EC50 (nM), CXCR4 activation, Ca2+-flux in THP-1 cells [1] | Fold Increase of EC50 over wild-type CXCL12-α [1] | Kd [2] | fold tighter binding than the unsulfated peptide (p38) [3] |
| --- | --- | --- | --- | --- |
| CXCL12-α E60A (from UniProt P48061 22-93) (ligand) | 4.1 nM | 1.1 fold |  |  |
| CXCL12-α H25R (from UniProt P48061 22-93) (ligand) | 5.1 nM | 1.4 fold |  |  |
| CXCL12-α K27A (from UniProt P48061 22-93) (ligand) | 10.1 nM | 2.8 fold |  |  |
| CXCL12-α K27E (from UniProt P48061 22-93) (ligand) | 16.8 nM | 4.7 fold |  |  |
| CXCL12-α K64A (from UniProt P48061 22-93) (ligand) | 5 nM | 1.4 fold |  |  |
| CXCL12-α R20A (from UniProt P48061 22-93) (ligand) | 4.3 nM | 1.2 fold |  |  |
| CXCL12-α R47A (from UniProt P48061 22-93) (ligand) | 14.1 nM | 3.9 fold |  |  |
| CXCL12-α R47E (from UniProt P48061 22-93) (ligand) | 654 nM | 182 fold |  |  |

Results, then the substance that gave them:

| EC50 (nM), CXCR4 activation, Ca2+-flux in THP-1 cells [1] | Fold Increase of EC50 over wild-type CXCL12-α [1] | Kd [2] | fold tighter binding than the unsulfated peptide (p38) [3] | Substance |
| --- | --- | --- | --- | --- |
| 3.7 nM | 1 fold |  |  | CXCL12-α E63A (from UniProt P48061 22-93) (ligand) |
| 4.3 nM | 1.2 fold |  |  | CXCL12-α R41A (from UniProt P48061 22-93) (ligand) |
| 27.1 nM | 7.5 fold |  |  | CXCL12-α V39A (from UniProt P48061 22-93) (ligand) |
| 8.6 nM | 2.4 fold |  |  | CXCL12-α V49A (from UniProt P48061 22-93) (ligand) |
|  |  | 200 nM | 20 fold | p38-sY3 (CXCR4 N-terminal peptide p38 with sulfotyrosine at positions 7, 12 and 21) |
